Drawing on US6232070A, “Pharmacological targeting of mRNA cap formation” (priority 1999, dated 2001), this text covers Km for 2 proteins.

Broadly, the Km is the concentration of substrate that gives half-maximal velocity.

Substrate in data set [1]: Nc1ncnc2c1ncn2[C@@H]1O[C@H](COP(=O)(O)OP(=O)(O)OP(=O)(O)O)[C@@H](O)[C@H]1O
The data set can be described thus: ATP hydrolysis by Cet1(201-549)p. It counts as biochemical, Saccharomyces cerevisiae. The conditions noted are these: other: ATP hydrolysis by the truncated enzyme; pH 7.0; 30.0 °C. Here is the method:
(FIG. 8A) Protein titration. Reaction mixtures (10 μl) containing 50 mM Tris HCl (pH 7.0), 5 mM DTT, 2 mM MnCl2, 1 mM [γ^32 P]ATP, and either Cet1p, Cet1(201-549)p, or Cet1(246-549)p were incubated for 15 min at 30° C. Pi release is plotted as a function of input protein. (FIG. 8B) Kinetics. Reaction mixtures (100 μl) containing 50 mM Tris HCl (pH 7.0), 5 mM DTT, 2 mM MnCl2, 1 mM [γ^32 P]ATP, and either 8, 16, or 32 nM Cet1p were incubated at 30° C. Aliquots (10 μl ) were withdrawn at the times indicated and quenched immediately by the addition of […] of 5 M formic acid. Pi release is plotted as a function of time. (FIG. 8C) Hydrolysis of [α^32 P]ATP. Reaction mixtures (100 μl) containing 50 mM Tris HCl (pH 7.0), 5 mM DTT, 2 mM MnCl2, 1 mM [α^32 P]ATP, and 100 ng of Cet1p were incubated at 30° C. Aliquots (10 μl) were withdrawn at the times indicated and quenched with formic acid. The products were analyzed by TLC. The levels of [α^32 P]ADP (o) and [α^32 P]AMP (q) are plotted as a function of time. An otherwise identical reaction containing 1 mM [γ^32 P]ATP was analyzed in parallel; Pi release (.cndot.). (FIG. 8D) ATP-dependence. Reaction mixtures (20 μl) containing 50 mM Tris HCl (pH 7.0), 5 mM DTT, 2 mM MnC2, 40 pg of Cet1p, and [γ^32 P]ATP as indicated were incubated for 15 min at 30° C. Pi release is plotted as a function of ATP concentration. […]

Substrate in data set [2]: Nc1ncnc2c1ncn2[C@@H]1O[C@H](COP(=O)(O)OP(=O)(O)OP(=O)(O)O)[C@@H](O)[C@H]1O
The data set can be described thus: ATP hydrolysis by Cet1p, manganese-dependent. It counts as biochemical, Saccharomyces cerevisiae. The conditions noted are these: other: 2 mM MnCl2, pH 7.0, 30° C., double-reciprocal plot. Here is the method: (FIG. 8A) Protein titration. Reaction mixtures (10 μl) containing 50 mM Tris HCl (pH 7.0), 5 mM DTT, 2 mM MnCl2, 1 mM [γ^32 P]ATP, and either Cet1p, Cet1(201-549)p, or Cet1(246-549)p were incubated for 15 min at 30° C. Pi release is plotted as a function of input protein. (FIG. 8B) Kinetics. Reaction mixtures (100 μl) containing 50 mM Tris HCl (pH 7.0), 5 mM DTT, 2 mM MnCl2, 1 mM [γ^32 P]ATP, and either 8, 16, or 32 nM Cet1p were incubated at 30° C. Aliquots (10 μl ) were withdrawn at the times indicated and quenched immediately by the addition of […] of 5 M formic acid. Pi release is plotted as a function of time. (FIG. 8C) Hydrolysis of [α^32 P]ATP. […] The products were analyzed by TLC. […] An otherwise identical reaction containing 1 mM [γ^32 P]ATP was analyzed in parallel; Pi release (.cndot.). […]
The extent of ^32 Pi release from [γ^32 P]ATP during a 15 min reaction was proportional to the amount of input Cet1p protein (FIG. 8A). ^32 Pi accumulated with time over 30 min; the rate of reaction varied linearly with Cet1p concentration (FIG. 8B). From a plot of initial rate versus enzyme concentration, a turnover number of 25 s^-1 was calculated. Cet1p catalyzed the quantitative conversion of [α^32P]ATP to [α^32 P]ADP. […] No formation of [α^32 P]AMP from [α^32 P]ATP was detected, even after 20-45 min of incubation, by which time all of the nucleotide had been converted to ADP. […]

B1: Cet1(201-549)p (Saccharomyces cerevisiae S288C) (protein)
chain: ANAAVDNIFEEKATLQSKKNNIKRDLEVLNEISASSKPSKYRNVPIWAQKWKPTIKALQSINVKDLKIDPSFLNIIPDDDLTKSVQDWVYATIYSIAPELRSFIELEMKFGVIIDAKGPDRVNPPVSSQCVFTELDAHLTPNIDASLFKELSKYIRGISEVTENTGKFSIIESQTRDSVYRVGLSTQRPRFLRMSTDIKTGRVGQFIEKRHVAQLLLYSPKDSYDVKISLNLELPVPDNDPPEKYKSQSPISERTKDRVSYIHNDSCTRIDITKVENHNQNSKSRQSETTHEVELEINTPALLNAFDNITNDSKEYASLIRTFLNNGTIIRRKLSSLSYEIFEGSKKVM
notes: The kinetic parameters determined for ATP hydrolysis by Cet1(201-549)p; His-tag; made in house; host or cells: Escherichia coli BL21(DE3)
For the protein B1, the Km in data set [1] turned out to be 3.3 µM.

B2: Cet1p (Saccharomyces cerevisiae S288C) (protein)
chain: MSYTDNPPQTKRALSLDDLVNHDENEKVKLQKLSEAANGSRPFAENLESDINQTETGQAAPIDNYKESTGHGSHSQKPKSRKSSNDDEETDTDDEMGASGEINFDSEMDFDYDKQHRNLLSNGSPPMNDGSDANAKLEKPSDDSIHQNSKSDEEQRIPKQGNEGNIASNYITQVPLQKQKQTEKKIAGNAVGSVVKKEEEANAAVDNIFEEKATLQSKKNNIKRDLEVLNEISASSKPSKYRNVPIWAQKWKPTIKALQSINVKDLKIDPSFLNIIPDDDLTKSVQDWVYATIYSIAPELRSFIELEMKFGVIIDAKGPDRVNPPVSSQCVFTELDAHLTPNIDASLFKELSKYIRGISEVTENTGKFSIIESQTRDSVYRVGLSTQRPRFLRMSTDIKTGRVGQFIEKRHVAQLLLYSPKDSYDVKISLNLELPVPDNDPPEKYKSQSPISERTKDRVSYIHNDSCTRIDITKVENHNQNSKSRQSETTHEVELEINTPALLNAFDNITNDSKEYASLIRTFLNNGTIIRRKLSSLSYEIFEGSKKVM
notes: the two truncated proteins were as active as full-length Cet1p in hydrolyzing ATP; His-tag; made in house; host or cells: Escherichia coli BL21(DE3)
With B2, in data set [2], the Km turned out to be 2.8 µM.
